Target: Irgb6 (mouse (endogenous in macrophages)) (UniProt Q62293)
Assay: co-IP

Chain of UniProt Q62293 (Q62293 whole entry): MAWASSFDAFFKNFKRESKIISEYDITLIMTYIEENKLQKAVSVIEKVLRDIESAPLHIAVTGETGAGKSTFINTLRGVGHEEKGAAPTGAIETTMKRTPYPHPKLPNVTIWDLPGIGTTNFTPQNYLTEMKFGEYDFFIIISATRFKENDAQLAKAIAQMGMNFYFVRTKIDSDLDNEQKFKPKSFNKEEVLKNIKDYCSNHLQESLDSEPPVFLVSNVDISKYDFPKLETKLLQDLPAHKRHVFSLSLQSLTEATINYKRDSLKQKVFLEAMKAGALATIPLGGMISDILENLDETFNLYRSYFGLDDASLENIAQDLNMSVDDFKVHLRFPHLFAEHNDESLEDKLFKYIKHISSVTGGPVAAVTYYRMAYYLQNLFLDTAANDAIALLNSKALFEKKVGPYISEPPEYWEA

## kinase-dead ROP18 D/A (Ty-tagged; expressed in transgenic type III parasites) (from UniProt Q2PAY2 1-554) (enzyme)
  fold change of co-precipitated ROP18 against active ROP18: 3 fold
